T1: SIP2 D1 (Plasmodium falciparum, UniProt C6KSN9 177-235)
T1 sequence: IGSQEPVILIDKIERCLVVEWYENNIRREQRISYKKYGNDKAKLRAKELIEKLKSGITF

B1: GTGCAC_site10010 (dsDNA)
DNA 1: AACCATTGGGAAAGGGTGCACATATATATATATATA
DNA 2: TATATATATATATATGTGCACCCTTTCCCAATGGTT
B2: GTGCAC_site9928 (dsDNA)
DNA 1: TTAACCGGTTTATGGGTGCACATTCTTCTTAAATAA
DNA 2: TTATTTAAGAAGAATGTGCACCCATAAACCGGTTAA
B3: GTGCAC_site10477 (dsDNA)
DNA 1: AAATATTTCTGCAAGGTGCACTTTATAAATCTTTGA
DNA 2: TCAAAGATTTATAAAGTGCACCTTGCAGAAATATTT
B4: GTGCAC_negctrl_site663 (dsDNA)
DNA 1: ATAAAAATAAATAAATTATATAAATGTAATATGAAA
DNA 2: TTTCATATTACATTTATATAATTTATTTATTTTTAT
B5: GTGCAC_site9899 (dsDNA)
DNA 1: CTTGTGCTTTATAGGGTGCACATTTTGTTTTGGTAA
DNA 2: TTACCAAAACAAAATGTGCACCCTATAAAGCACAAG
B6: GTGCAC_site10530 (dsDNA)
DNA 1: ATTAATAATCGAAAGGTGCACTTTGATTTGATAACA
DNA 2: TGTTATCAAATCAAAGTGCACCTTTCGATTATTAAT
B7: GTGCAC_site10047 (dsDNA)
DNA 1: TATAATTTTTACTGGGTGCACTCGATATTTTAAATA
DNA 2: TATTTAAAATATCGAGTGCACCCAGTAAAAATTATA
B8: GTGCAC_site9987 (dsDNA)
DNA 1: ATATCTTATAATACGGTGCACTTGACATGAACAACT
DNA 2: AGTTGTTCATGTCAAGTGCACCGTATTATAAGATAT
B9: GTGCAC_negctrl_site64 (dsDNA)
DNA 1: TGCAAATTTAACAAAAAAAAAAAAAAAAAAAAAAAA
DNA 2: TTTTTTTTTTTTTTTTTTTTTTTTGTTAAATTTGCA
B10: GTGCAC_site10223 (dsDNA)
DNA 1: TTAATTATGGACAGGGTGCACATGAATAATAATACC
DNA 2: GGTATTATTATTCATGTGCACCCTGTCCATAATTAA
B11: GTGCAC_negctrl_site248 (dsDNA)
DNA 1: ACTACGTGTCAAAAATATTAATTACAAATGAATAAA
DNA 2: TTTATTCATTTGTAATTAATATTTTTGACACGTAGT
B12: GTGCAC_negctrl_site359 (dsDNA)
DNA 1: ATATAAAAAAGGGAGGTAAATGAATGTGAAACCCAA
DNA 2: TTGGGTTTCACATTCATTTACCTCCCTTTTTTATAT
B13: GTGCAC_negctrl_site313 (dsDNA)
DNA 1: GATATAATTATATTATGGTGTTTTTGATAGATATTT
DNA 2: AAATATCTATCAAAAACACCATAATATAATTATATC
B14: GTGCAC_site10453 (dsDNA)
DNA 1: TATAAGTAGATAAGGGTGCACAATATAAATATATAG
DNA 2: CTATATATTTATATTGTGCACCCTTATCTACTTATA
B15: GTGCAC_negctrl_site404 (dsDNA)
DNA 1: AAAAAAAAAAAGAAGGAAACATTTGACCAAAAATAT
DNA 2: ATATTTTTGGTCAAATGTTTCCTTCTTTTTTTTTTT
B16: GTGCAC_site9855 (dsDNA)
DNA 1: TTTATTTTCCAAAGGGTGCACATAGTTAAAACGATA
DNA 2: TATCGTTTTAACTATGTGCACCCTTTGGAAAATAAA
B17: GTGCAC_site10157 (dsDNA)
DNA 1: TTTATTTTCCAAAGGGTGCACATAGTTGAAACGATA
DNA 2: TATCGTTTCAACTATGTGCACCCTTTGGAAAATAAA
B18: GTGCAC_negctrl_site708 (dsDNA)
DNA 1: TTCTATTCAAATGCAAAATTATTAAATAAAAAATAA
DNA 2: TTATTTTTTATTTAATAATTTTGCATTTGAATAGAA

What follows are binders tested against T1, SIP2 D1 (assay: gcPBM; about 25 ug protein; PBS, 1% milk, 0.2 mg/ml BSA, salmon testes DNA, 0.03% Triton X-100). Settings: tags: N-terminal GST (pGEX-4T-1), kept; label: surface-attached array probe.

In order of rising binding signal:
1. B18  6.9 ln median PBM intensity, better of two orientations
2. B15  6.91 ln median PBM intensity, better of two orientations
3. B4  6.92 ln median PBM intensity, better of two orientations
4. B9  6.92 ln median PBM intensity, better of two orientations
5. B11  6.92 ln median PBM intensity, better of two orientations
6. B12  6.92 ln median PBM intensity, better of two orientations
7. B13  6.92 ln median PBM intensity, better of two orientations
8. B2  11.9 ln median PBM intensity, better of two orientations
9. B5  11.9 ln median PBM intensity, better of two orientations
10. B8  11.9 ln median PBM intensity, better of two orientations
11. B10  11.9 ln median PBM intensity, better of two orientations
12. B16  11.9 ln median PBM intensity, better of two orientations
13. B17  11.9 ln median PBM intensity, better of two orientations
14. B3  12.1 ln median PBM intensity, better of two orientations
15. B14  12.1 ln median PBM intensity, better of two orientations
16. B1  12.2 ln median PBM intensity, better of two orientations
17. B6  12.2 ln median PBM intensity, better of two orientations
18. B7  12.2 ln median PBM intensity, better of two orientations
